Experimental data from paper PMC5146279, “Atomic structure of the innexin-6 gap junction channel determined by cryo-EM” (Nature Communications, 2016).

How the values were obtained:
[1] = target: the molecule itself; experiment: cryo-EM structure; INX-6 gap junction channel by single-particle analysis, 35,608 particles, D8 symmetry, 3.6 Å; sample after GraDeR, 10 mM Tris pH 7.5, 500 mM NaCl
[2] = target: the molecule itself; experiment: cryo-EM structure; INX-6 hemichannel (docked class) by single-particle analysis, 74,398 particles, C8 symmetry, 3.3 Å; sample after GraDeR, 10 mM Tris pH 7.5, 500 mM NaCl

B1: Caenorhabditis elegans innexin-6 (INX-6) wild type (natural protein, UniProt Q9U3N4 1-389, looked up)
chain: MASQVGAINSVNALISRVFVQPKGDLADRLNSRVTVVILAVSSALLLSSHFIGDPITCWTPAQFNAQWVNFVNQYCFVHGTYFVPLDQQLAFEEEERTKVSIQYYQWVPYVFALQAFLFYIPRFIWKAMIAYSGYDLAAAVKYVDRFWSENRDKDDKFKTRLAAFEGRPSVYIWDGIRLARKKRSRNMALFYTLSTVWQAVNAWIQFYILTQLLDSSIYTLWGPSILGDLLQGNDWQTTGHFPRIVHCDFNRRRPASVQLDTVLCVLTLNIYYEKLFIFLWFWLVFVAVVSTVNCFKWIYYLCNKTKAQKTIKNYLSTAPIKSTISDDQFFSALGEDGLFIMDQMALNLGDIPASYLTISMRNICQDFIESEDYIDEERTPFVKSIKHT
notes: Innexin-6 (INX-6), C. elegans, wild type; Eight copies form a hemichannel and 16 copies the docked gap junction channel; also called INX-6 WT; INX-6 hemichannel; source: Sf9 cells infected with recombinant virus, purified (Ni-NTA, tag digested, gel filtration, GraDeR); not shown: GFP, C-terminal, cleaved; His8, C-terminal, cleaved; copies: 16
[1]
  stoichiometry N: 16
[2]
  stoichiometry N: 8
